Results: patent US10738340B2, “Methods and materials for enzymatic synthesis of mogroside compounds” (EVOLVA SA, priority 2011, dated 2020)

Assay: In vitro UGT screening: reactions of mogrol with a panel of 230 UGT enzymes, products analyzed with LC-MS
Assay type: biochemical
Conditions: for position of mogrol glycosylated by the UGT: aglycone mogrol as substrate, see FIG. 2; for product formed from mogrol substrate in the in vitro UGT reaction (LC-MS): partially purified UGT enzyme or crude enzyme extract
Description: In vitro reactions of mogrol with a panel of 230 UGT enzymes were performed and the products were analyzed with LC-MS. The in vitro UGT reaction mixtures included 4× Tris buffer, mogrol (250 μM), UDP-glucose (750 μM) and 1% alkaline phosphatase. Five μl of each partially purified UGT enzyme or crude enzyme extract was added to the reaction, and the reaction volume brought to 50 μl with water. The reactions were incubated overnight at 30° C. and performed in sterilized 96 well plates. After the incubation, 25 μL of DMSO were added into each reaction and the reaction plates were centrifuged for 5 min. Forty μL samples were taken from each well and filtered, and were used for LC-MS analysis.

[1] = mogrol 250 μM, UDP-glucose 750 μM, overnight at 30° C.

Row | position of mogrol glycosylated by the UGT | completeness of the mogrol glycosylation reaction [1] | Molecule | product formed from mogrol substrate in the in vitro UGT reaction (LC-MS) [1]
1 | glycosylate at the C24-OH position |  | UGT 73C6: UDP dependent glucosyltransferase from Arabidopsis thaliana, glycosyltransferase family I, SEQ ID NO:3 (protein, listed as Arabidopsis thaliana) MAFEKNNEPFPLHFVLFPFMAQGHMIPMVDIARLLAQRGVLITIVTTPHNAARFKNVLNRAIESGLPINLVQVKFPYQEAGLQEGQENMDLLTTMEQITSFFKAVNLLKEPVQNLIEEMSPRPSCLISDMCLSYTSEIAKKFKIPKILFHGMGCFCLLCVNVLRKNREILDNLKSDKEYFIVPYFPDRVEFTRPQVPVETYVPAGWKEILEDMVEADKTSYGVIVNSFQELEPAYAKDFKEARSGKAWTIGPVSLCNKVGVDKAERGNKSDIDQDECLEWLDSKEPGSVLYVCLGSICNLPLSQLLELGLGLEESQRPFIWVIRGWEKYKELVEWFSESGFEDRIQDRGLLIKGWSPQMLILSHPSVGGFLTHCGWNSTLEGITAGLPMLTWPLFADQFCNEKLVVQILKVGVSAEVKEVMKWGEEEKIGVLVDKEGVKKAVEELMGESDDAKERRRRAKELGESAHKAVEEGGSSHSNITFLLQDIMQLAQSNN | convert all the mogrol substrate to mogroside Ib
2 | glycosylate at the C24-OH position | the reaction was not complete | UGT 73E1: UDP dependent glucosyltransferase from Stevia rebaudiana, glycosyltransferase family I, SEQ ID NO:4 (protein, listed as Stevia rebaudiana) MSPKMVAPPTNLHFVLFPLMAQGHLVPMVDIARILAQRGATVTIITTPYHANRVRPVISRAIATNLKIQLLELQLRSTEAGLPEGCESFDQLPSFEYWKNISTAIDLLQQPAEDLLRELSPPPDCIISDFLFPWTTDVARRLNIPRLVFNGPGCFYLLCIHVAITSNILGENEPVSSNTERVVLPGLPDRIEVTKLQIVGSSRPANVDEMGSWLRAVEAEKASFGIVVNTFEELEPEYVEEYKTVKDKKMWCIGPVSLCNKTGPDLAERGNKAAITEHNCLKWLDERKLGSVLYVCLGSLARISAAQAIELGLGLESINRPFIWCVRNETDELKTWFLDGFEERVRDRGLIVHGWAPQVLILSHPTIGGFLTHCGWNSTIESITAGVPMITWPFFADQFLNEAFIVEVLKIGVRIGVERACLFGEEDKVGVLVKKEDVKKAVECLMDEDEDGDQRRKRVIELAKMAKIAMAEGGSSYENVSSLIRDVTETVRAPH | mogroside Ib was found as the major product, together with a new glycosylated mogrol
3 | glycosylate at the C24-OH position |  | UGT 85C2: UDP dependent glucosyltransferase from Stevia rebaudiana, glycosyltransferase family I, SEQ ID NO:5 (protein, listed as Stevia rebaudiana) MDAMATTEKKPHVIFIPFPAQSHIKAMLKLAQLLHHKGLQITFVNTDFIHNQFLESSGPHCLDGAPGFRFETIPDGVSHSPEASIPIRESLLRSIETNFLDRFIDLVTKLPDPPTCIISDGFLSVFTIDAAKKLGIPVMMYWTLAACGFMGFYHIHSLIEKGFAPLKDASYLTNGYLDTVIDWVPGMEGIRLKDFPLDWSTDLNDKVLMFTTEAPQRSHKVSHHIFHTFDELEPSIIKTLSLRYNHIYTIGPLQLLLDQIPEEKKQTGITSLHGYSLVKEEPECFQWLQSKEPNSVVYVNFGSTTVMSLEDMTEFGWGLANSNHYFLWIIRSNLVIGENAVLPPELEEHIKKRGFIASWCSQEKVLKHPSVGGFLTHCGWGSTIESLSAGVPMICWPYSWDQLTNCRYICKEWEVGLEMGTKVKRDEVKRLVQELMGEGGHKMRNKAKDWKEKARIAIAPNGSSSLNIDKMVKEITVLARN | convert all the mogrol substrate to mogroside Ib
4 | glycosylate at the C24-OH position |  | UGT 73C3: UDP dependent glucosyltransferase from Arabidopsis thaliana, glycosyltransferase family I, SEQ ID NO:1 (protein, listed as Arabidopsis thaliana) MATEKTHQFHPSLHFVLFPFMAQGHMIPMIDIARLLAQRGVTITIVTTPHNAARFKNVLNRAIESGLAINILHVKFPYQEFGLPEGKENIDSLDSTELMVPFFKAVNLLEDPVMKLMEEMKPRPSCLISDWCLPYTSIIAKNFNIPKIVFHGMGCFNLLCMHVLRRNLEILENVKSDEEYFLVPSFPDRVEFTKLQLPVKANASGDWKEIMDEMVKAEYTSYGVIVNTFQELEPPYVKDYKEAMDGKVWSIGPVSLCNKAGADKAERGSKAAIDQDECLQWLDSKEEGSVLYVCLGSICNLPLSQLKELGLGLEESRRSFIWVIRGSEKYKELFEWMLESGFEERIKERGLLIKGWAPQVLILSHPSVGGFLTHCGWNSTLEGITSGIPLITWPLFGDQFCNQKLVVQVLKAGVSAGVEEVMKWGEEDKIGVLVDKEGVKKAVEELMGDSDDAKERRRRVKELGELAHKAVEKGGSSHSNITLLLQDIMQLAQFKN | convert all the mogrol substrate to mogroside Ib

Row | Molecule | position of mogrol glycosylated by the UGT | completeness of the mogrol glycosylation reaction [1] | product formed from mogrol substrate in the in vitro UGT reaction (LC-MS) [1]
5 | UGT 73C5: UDP dependent glucosyltransferase from Arabidopsis thaliana, glycosyltransferase family I, SEQ ID NO:2 (protein, listed as Arabidopsis thaliana) MVSETTKSSPLHFVLFPFMAQGHMIPMVDIARLLAQRGVIITIVTTPHNAARFKNVLNRAIESGLPINLVQVKFPYLEAGLQEGQENIDSLDTMERMIPFFKAVNFLEEPVQKLIEEMNPRPSCLISDFCLPYTSKIAKKFNIPKILFHGMGCFCLLCMHVLRKNREILDNLKSDKELFTVPDFPDRVEFTRTQVPVETYVPAGDWKDIFDGMVEANETSYGVIVNSFQELEPAYAKDYKEVRSGKAWTIGPVSLCNKVGADKAERGNKSDIDQDECLKWLDSKKHGSVLYVCLGSICNLPLSQLKELGLGLEESQRPFIWVIRGWEKYKELVEWFSESGFEDRIQDRGLLIKGWSPQMLILSHPSVGGFLTHCGWNSTLEGITAGLPLLTWPLFADQFCNEKLVVEVLKAGVRSGVEQPMKWGEEEKIGVLVDKEGVKKAVEELMGESDDAKERRRRAKELGDSAHKAVEEGGSSHSNISFLLQDIMELAEPNN | glycosylates at both the C3-OH (UGT #1 in FIG. 2) and C24-OH position |  | makes both mogroside Ia and Ib
